Broadly, the stoichiometry N is a count of units in the complex or per binding partner.

Experiment [1] concerns the target chloride intracellular channel 1 construct CLIC1C24 (UniProt O00299). The experiment in a line: two-colour single-molecule TIRF colocalisation with photobleaching step counting.
For experiment [2] the target is unchanged. The experiment can be described thus: FRET or BRET. (In general: Bioluminescence resonance energy transfer reports proximity on the nanometre scale.)

Values joined by “and” are separate entries in the source; they are usually repeats but may differ in a detail not shown here. Equal values may be shown once.

For “human αB-crystallin mutant αBc_(C176), fluorescently labelled (natural protein)”, in experiment [1], the proportion of CLIC1C24 colocalised with αBc (C176) (maximum, after 4 hr) was found to be 50%; the αBc subunits per complex (0.25 – 0.5 hr) was 1 subunits and 3 subunits; the αBc subunits per complex (complexes whose abundance increased after 1 hr) is over 6 subunits; the αBc subunits per complex (more complexes at molar ratio 2:1 to 4:1) was over 10 subunits. For the same substance, in experiment [1] (scale: αBc per CLIC1), the stoichiometry N turned out to be 1. This substance also returned an initial FRET efficiency (E) of the complexes in experiment [2] of 0.8 to 1.
